Test results reported in paper PMC2711571 (The Journal of Cell Biology, 2009).
Where “and” joins values, the source holds several entries; their conditions need not be identical. Equal values may be shown once.

Columns and labels:
[1] = biological target: Rat tail collagen type I, neutralized fibrillar (rat) (UniProt P02454); experiment: ELISA
[2] = biological target: Human Met-Fc chimera (human) (UniProt P08581); experiment: ELISA
[3] = biological target: Met receptor (human (endogenous in HeLa)) (UniProt P08581); experiment: cross-linking + co-IP
Human Met-Fc chimera [4] = biological target: T1, Human Met-Fc chimera (human, UniProt P08581 25-932, fully glycosylated); experiment: ELISA
Human Met-Fc chimera [5] = biological target: T1, Human Met-Fc chimera; experiment: ELISA; remark: listed apart in the source

T1 sequence (P08581 25-932, change not shown): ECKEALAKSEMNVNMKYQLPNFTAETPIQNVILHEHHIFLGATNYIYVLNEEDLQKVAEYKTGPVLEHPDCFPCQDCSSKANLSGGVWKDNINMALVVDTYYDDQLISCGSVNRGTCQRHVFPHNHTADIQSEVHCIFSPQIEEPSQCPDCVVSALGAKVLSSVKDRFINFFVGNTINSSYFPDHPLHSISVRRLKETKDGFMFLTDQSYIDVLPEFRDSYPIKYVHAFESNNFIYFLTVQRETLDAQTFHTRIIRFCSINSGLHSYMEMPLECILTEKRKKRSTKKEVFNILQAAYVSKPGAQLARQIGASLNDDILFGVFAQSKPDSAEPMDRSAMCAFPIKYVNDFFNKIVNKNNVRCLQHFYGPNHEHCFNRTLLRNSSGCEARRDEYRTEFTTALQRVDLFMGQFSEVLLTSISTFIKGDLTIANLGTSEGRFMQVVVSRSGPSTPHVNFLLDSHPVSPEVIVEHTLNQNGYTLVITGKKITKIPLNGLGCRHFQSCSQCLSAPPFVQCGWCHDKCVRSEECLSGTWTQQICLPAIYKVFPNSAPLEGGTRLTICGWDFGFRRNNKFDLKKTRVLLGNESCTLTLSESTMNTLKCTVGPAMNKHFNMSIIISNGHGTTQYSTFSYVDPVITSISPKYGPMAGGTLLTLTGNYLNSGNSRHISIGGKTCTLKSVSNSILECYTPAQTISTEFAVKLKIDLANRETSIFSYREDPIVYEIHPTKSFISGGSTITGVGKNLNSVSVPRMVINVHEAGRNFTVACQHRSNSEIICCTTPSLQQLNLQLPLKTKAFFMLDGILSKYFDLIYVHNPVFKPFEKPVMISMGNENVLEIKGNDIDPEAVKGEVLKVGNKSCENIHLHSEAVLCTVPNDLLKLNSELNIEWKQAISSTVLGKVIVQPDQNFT
Chain of Rat tail collagen type I, neutralized fibrillar (rat) (P02454 152-1207, chain 1 of 2): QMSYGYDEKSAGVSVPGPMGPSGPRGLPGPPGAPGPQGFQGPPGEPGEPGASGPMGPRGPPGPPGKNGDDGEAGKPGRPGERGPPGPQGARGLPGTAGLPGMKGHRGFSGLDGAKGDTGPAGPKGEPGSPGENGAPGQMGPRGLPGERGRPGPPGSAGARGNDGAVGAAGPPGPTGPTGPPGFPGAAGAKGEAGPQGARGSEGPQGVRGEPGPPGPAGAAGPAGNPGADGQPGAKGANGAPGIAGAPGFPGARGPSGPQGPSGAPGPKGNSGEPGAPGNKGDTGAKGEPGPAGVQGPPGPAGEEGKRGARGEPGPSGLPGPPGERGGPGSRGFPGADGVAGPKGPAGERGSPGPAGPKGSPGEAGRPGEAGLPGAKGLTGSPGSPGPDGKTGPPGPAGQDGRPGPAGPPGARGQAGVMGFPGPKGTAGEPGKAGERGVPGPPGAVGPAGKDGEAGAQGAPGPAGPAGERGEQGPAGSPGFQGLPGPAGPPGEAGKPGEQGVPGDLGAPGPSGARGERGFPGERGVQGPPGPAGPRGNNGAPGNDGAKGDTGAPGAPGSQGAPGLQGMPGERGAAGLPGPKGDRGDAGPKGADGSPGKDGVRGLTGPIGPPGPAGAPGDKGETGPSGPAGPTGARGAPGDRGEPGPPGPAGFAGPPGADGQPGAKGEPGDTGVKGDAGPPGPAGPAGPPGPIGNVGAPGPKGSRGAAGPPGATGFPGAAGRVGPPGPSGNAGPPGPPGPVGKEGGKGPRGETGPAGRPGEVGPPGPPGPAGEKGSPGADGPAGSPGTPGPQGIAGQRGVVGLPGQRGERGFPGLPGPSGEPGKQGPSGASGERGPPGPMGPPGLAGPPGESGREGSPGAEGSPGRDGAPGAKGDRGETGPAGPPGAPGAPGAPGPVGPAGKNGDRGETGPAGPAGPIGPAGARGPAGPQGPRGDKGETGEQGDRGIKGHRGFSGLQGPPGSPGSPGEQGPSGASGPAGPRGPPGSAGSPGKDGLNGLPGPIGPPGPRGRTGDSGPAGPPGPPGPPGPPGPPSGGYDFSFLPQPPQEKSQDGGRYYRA
Chain of Rat tail collagen type I, neutralized fibrillar (rat) (P02466 86-1125, chain 2 of 2, further chain): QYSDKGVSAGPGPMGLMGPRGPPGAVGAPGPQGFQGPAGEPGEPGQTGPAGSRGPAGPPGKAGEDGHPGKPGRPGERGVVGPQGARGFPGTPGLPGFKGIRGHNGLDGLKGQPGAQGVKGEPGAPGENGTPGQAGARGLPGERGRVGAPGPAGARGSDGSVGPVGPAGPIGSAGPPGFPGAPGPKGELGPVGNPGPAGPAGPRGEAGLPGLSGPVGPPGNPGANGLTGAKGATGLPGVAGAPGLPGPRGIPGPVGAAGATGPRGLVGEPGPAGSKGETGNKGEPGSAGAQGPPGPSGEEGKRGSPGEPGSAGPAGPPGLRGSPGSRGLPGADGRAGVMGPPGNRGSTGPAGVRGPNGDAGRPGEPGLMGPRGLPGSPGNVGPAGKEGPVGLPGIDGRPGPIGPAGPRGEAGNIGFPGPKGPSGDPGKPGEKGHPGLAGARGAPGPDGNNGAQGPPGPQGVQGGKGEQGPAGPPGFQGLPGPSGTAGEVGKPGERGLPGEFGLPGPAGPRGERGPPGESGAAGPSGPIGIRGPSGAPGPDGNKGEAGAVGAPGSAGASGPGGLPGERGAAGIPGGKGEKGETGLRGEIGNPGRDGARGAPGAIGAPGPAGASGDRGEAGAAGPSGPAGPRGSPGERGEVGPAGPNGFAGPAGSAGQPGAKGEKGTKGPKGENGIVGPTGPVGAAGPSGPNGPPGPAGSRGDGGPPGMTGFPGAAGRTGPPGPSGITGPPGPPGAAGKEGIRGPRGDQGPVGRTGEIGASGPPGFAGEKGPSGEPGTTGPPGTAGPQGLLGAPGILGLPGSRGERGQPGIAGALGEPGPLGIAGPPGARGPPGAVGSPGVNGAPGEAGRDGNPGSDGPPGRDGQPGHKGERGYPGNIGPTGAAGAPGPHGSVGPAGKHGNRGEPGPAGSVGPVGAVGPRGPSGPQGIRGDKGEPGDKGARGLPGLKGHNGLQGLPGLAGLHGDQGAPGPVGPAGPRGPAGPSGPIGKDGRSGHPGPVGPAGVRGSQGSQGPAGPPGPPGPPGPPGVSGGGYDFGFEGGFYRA
Chain of Human Met-Fc chimera (human) (P08581 25-932, change not shown): as the sequence (P08581 25-932, change not shown) above
Chain of Met receptor (human (endogenous in HeLa)) (P08581 25-1390): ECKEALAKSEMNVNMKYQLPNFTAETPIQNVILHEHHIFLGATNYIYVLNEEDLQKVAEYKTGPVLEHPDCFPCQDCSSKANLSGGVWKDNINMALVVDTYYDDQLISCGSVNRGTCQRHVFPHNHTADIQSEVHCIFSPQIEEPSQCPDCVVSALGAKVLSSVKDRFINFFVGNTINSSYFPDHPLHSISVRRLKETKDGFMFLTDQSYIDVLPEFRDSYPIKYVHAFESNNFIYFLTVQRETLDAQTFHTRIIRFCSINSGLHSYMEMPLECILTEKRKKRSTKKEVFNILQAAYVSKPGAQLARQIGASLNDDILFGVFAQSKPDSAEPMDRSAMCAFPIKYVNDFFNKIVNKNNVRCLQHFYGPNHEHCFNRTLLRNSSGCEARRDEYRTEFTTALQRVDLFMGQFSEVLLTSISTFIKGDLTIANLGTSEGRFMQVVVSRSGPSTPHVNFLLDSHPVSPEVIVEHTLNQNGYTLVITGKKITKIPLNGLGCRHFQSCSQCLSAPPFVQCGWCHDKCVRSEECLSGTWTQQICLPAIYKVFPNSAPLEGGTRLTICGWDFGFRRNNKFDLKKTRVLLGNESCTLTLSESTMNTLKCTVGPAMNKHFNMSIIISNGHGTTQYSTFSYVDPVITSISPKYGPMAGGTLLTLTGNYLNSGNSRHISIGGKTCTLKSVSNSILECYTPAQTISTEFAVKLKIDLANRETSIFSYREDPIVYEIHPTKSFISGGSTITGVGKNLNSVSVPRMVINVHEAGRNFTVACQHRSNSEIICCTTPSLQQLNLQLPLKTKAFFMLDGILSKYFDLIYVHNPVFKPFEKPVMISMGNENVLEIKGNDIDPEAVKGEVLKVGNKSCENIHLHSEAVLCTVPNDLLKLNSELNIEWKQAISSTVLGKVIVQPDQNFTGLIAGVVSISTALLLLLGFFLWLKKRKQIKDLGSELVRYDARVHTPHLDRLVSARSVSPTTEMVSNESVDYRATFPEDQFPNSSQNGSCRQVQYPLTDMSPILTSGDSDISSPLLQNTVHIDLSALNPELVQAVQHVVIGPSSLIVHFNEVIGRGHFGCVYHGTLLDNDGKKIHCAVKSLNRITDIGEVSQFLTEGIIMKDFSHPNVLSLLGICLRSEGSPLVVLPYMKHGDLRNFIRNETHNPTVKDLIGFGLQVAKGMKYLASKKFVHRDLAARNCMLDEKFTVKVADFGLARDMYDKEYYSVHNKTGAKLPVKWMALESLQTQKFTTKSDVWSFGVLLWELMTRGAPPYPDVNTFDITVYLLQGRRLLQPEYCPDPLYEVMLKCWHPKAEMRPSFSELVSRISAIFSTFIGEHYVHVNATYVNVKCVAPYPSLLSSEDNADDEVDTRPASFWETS

| Molecule | Kd [1] | Kd [2] | stoichiometry N [3] | Kd (Human Met-Fc chimera [4]) | IC50 (Human Met-Fc chimera [5]) |
| --- | --- | --- | --- | --- | --- |
| Decorin protein core (from UniProt P07585 31-359) (ligand) | 0.28 nM | 1.5 nM | 1 | – | – |
| Internalin B (ligand) AKVQAETITVPTPIKQIFSDDAFAETIKDNLKKKSVTDAVTQNELNSIDQIIANNSDIKSVQGIQYLPNVTKLFLNGNKLTDIKPLANLKNLGWLFLDENKVKDLSSLKDLKKLKSLSLEHNGISDINGLVHLPQLESLYLGNNKITDITVLSRLTKLDTLSLEDNQISDIVPLAGLTKLQNLYLSKNHISDLRALAGLKNLDVLELFSQECLNKPINHQSNLVVPNTVKNTDGSLVTPEIISDDGDYEKPNVKWHLPEFTNEVSFIFYQPVTIGKAKARFHGRVTQPLKEVYTVSYDVDGTVIKTKVEAGTRITAPKPPTKQGYVFKGWYTEKNGGHEWNFNTDYMSGNDFTLYAVFKAETTEKAVNLTRYVKYIRGNAGIYKLPREDNSLKQGTLASHRCKALTVDREARNGGKLWYRLKNIGWTKAENLSLDRYDKMEYDKGVTAYARVRNASGNSVWTKPYNTAGAKHVNKLSVYQGKNMRILREAKTPITTWYQFSIGGKVIGWVDTRALNTFYKQSMEKPTRLTRYVSANKAGESYYKVPVADNPVKRGTLAKYKNQKLIVDCQATIEGQLWYRIRTSSTFIGWTKAANLRAQK | – | – | – | 2.16 nM | ~120 nM and ~180 nM |
